These results are taken from patent US20230109275A1 (AUTOLUS, published 2023).

Assay [1] concerns the target T1, TRBC1 (T cell receptor beta-chain constant domain 1), interaction partner protein injected in SPR (human, UniProt P01850 1-129, limits assumed).
T1 construct: also called TCR beta constant region 1
Put plainly: SPR (Biacore T200), antibody captured on anti-human IgG chip, TRBC1 injected, 25 C, 1:1 Langmuir fit. The method, then: Surface plasmon resonance (SPR) was carried out on several of antibody variants of hJOVI-1 to ascertain affinity, association and dissociation rates. The sequence details of these variants Mut1 to Mut15 used in the Examples section of the present patent application are included in Tables 1 and 2. These anti-TRBC antibody variants have specificity for either TRBC1 or TRBC2.
SPR experiments were performed using a Biacore T200 instrument using HBSP1 as the running and dilution buffer (GE Healthcare BioSciences). BIAevaluation software version 2.0 (GE Healthcare) was used for data processing. For determination of the binding kinetics, mouse anti-human IgG (GE Healthcare) was covalently coupled to a CM5 Sensor Chip (GE Healthcare). Anti-TRBC1 or anti-TRBC2 antibodies were captured onto the flow cell, and various concentrations of interaction partner protein (TRBC1 or TRBC2) were injected over the flow cell at a flow rate of […] at a temperature of 25° C. A double reference subtraction was performed using buffer alone. Kinetic rate constants were obtained by curve fitting according to a 1:1 Langmuir binding model.

Assay [2] has as its target T2, TRBC2 on HPB-ALL cells engineered to express only TRBC2 (human, UniProt A0A5B9 1-178).
T2 construct: whole, on cells; also called HPB-ALL TRBC2; HPB-ALL TRBC2+
In words: internalisation of pHrodo green conjugated antibody, flow cytometry.

T1 sequence (P01850 1-129 limits assumed): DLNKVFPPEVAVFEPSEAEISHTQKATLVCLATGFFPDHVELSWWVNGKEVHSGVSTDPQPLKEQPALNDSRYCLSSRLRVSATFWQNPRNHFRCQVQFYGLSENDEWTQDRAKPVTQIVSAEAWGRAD

B1: Mut11 (antibody, V domains shown)
VH: QVQLVQSGAEVKKPGASVKVSCKASGYTFTGYVMHWVRQAPGQGLEWMGFINPYNDDIQSNERFRGRVTMTRDTSISTAYMELSRLRSDDTAVYYCARGAGYNFDAAYRFFDFWGQGTMVTVSS
VL: DIVMTQSPLSLPVTPGEPASISCRSSQRLVHSNGNTYLHWYLQKPGQSPRLLIYRVSNRFPGVPDRFSGSGSGTDFTLKISRVEAEDVGVYYCSQSTHVPYTFGQGTKLEIK
notes: Variant of hJOVI-1; IgG format; also called VH G106A; anti-TRBC1 antibody Mut11
In assay [1], B1 returned a Kd of 203 nM, a koff of 0.0177 s⁻¹ and a kon of 87300 M⁻¹ s⁻¹. Further, in assay [2], the binding result is “no binding”.
